First the molecules themselves.
B1: VH:VL chains; a variant is named by its letters at X, in order (parent)
chain 1: QVQLVQSGAEVKKPGASVKVSCKASGYTFTDYXMHWVRQAPGQGLEWMGXVNPNXXXTTYNQKFEGRVTMTTDTSTSTAYMELRSLRSDDTAVYYCARXNXLDXWGQGTTVTVSS
chain 2: DIQMTQSPSSLSASVGDRVTITCSVSSSVSSIYLHWYQQKPGKAPKLLIYSTSNLASGVPSRFSGSGSGTDFTLTISSLQPEDFATYYCQVYSGYPLTFGGGTKVEIK

The data set covers variants of B1. Put plainly: yeast display scFab, FACS + sequencing. In outline: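 The non-specific binding call was based on sorted and sequenced yeast displaying a heavy-chain CDR mutant scFab library. Labelling used anti-Myc with biotinylated ovalbumin (260 μg/mL in PBSB, 3 h, room temperature) or soluble membrane proteins (130 μg/mL, 20 min on ice), and FACS collected the top 25% and bottom 10% of binders in two replicates. Positive meant present in ≥3 of 4 pooled positive samples and in no negatives, and negative meant the converse.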
Consider YKGKSAWV, for which the non-specific binding call is “binds”. Take YKGKSAWD: the non-specific binding call is “binds”.

On to YKGKGSAA, for which the non-specific binding call was “binds”. Next, YKGKGSAV: “binds”; VKGKDSGD: “binds”. Next, YKGRGAAY: “binds”.

As to YKGRGAAS, the non-specific binding call is on record as “binds”. To YKGRGAAF belongs “binds”; to YKGKGAWV, “binds”. As for YKGKGAWS, the non-specific binding call is on record as “binds”. Take YKGKGAWD: the non-specific binding call was “binds”. To YKGKGAWY belongs “binds”; to YKGKGAWA, “binds”. As for VKEKGDWV, the non-specific binding call is on record as “no binding”. Next, YKGRGALS: “binds”; YKGRGALA: “binds”.

Take YKGRGALF: the non-specific binding call is “binds”. For the variant YKGRGAGY, the non-specific binding call is “binds”.

Take YKGRGAGF: the non-specific binding call is given as “binds”. To YKGKGAVA belongs “binds”; to DKGGGFAV, “no binding”. Regarding VKEKGSLF, the non-specific binding call is on record as “binds”. To YKGRDASD belongs “binds”; to FKGEDAVA, “no binding”; to SKGRGAGS, “binds”.

In the case of DKGEGDGA, the non-specific binding call is recorded as “no binding”. To YKGRASAV belongs “binds”; to FKGEGDAA, “no binding”. Turning to VKGRADWD, the non-specific binding call is “no binding”. To VKGRADWA belongs “no binding”. Turning to VKGRADWF, the non-specific binding call is “no binding”. To VKGRADWV belongs “no binding”; to VKGRADWY, “no binding”. For SKERGDGA, the non-specific binding call is “no binding”.

As for VKGRADAD, the non-specific binding call is recorded as “no binding”. Consider VKGRADAV, for which the non-specific binding call is “no binding”. Next, VKGRADAA: “no binding”. Turning to FKGKGAVA, the non-specific binding call is “binds”. To FKGKGAVV belongs “binds”; to VKGKGDWV, “no binding”; to FKGEGDSA, “no binding”.

As to AKGGGDVV, the non-specific binding call is listed as “no binding”. FKGKGAWY: the non-specific binding call is reported as “binds”. To FKGEGSSA belongs “no binding”. Next, YKGAGDVV: “no binding”; YKGGGAGS: “binds”. To YKGGGAGA belongs “binds”; to SKGGSAWD, “binds”. As for YKGKGDGD, the non-specific binding call was “binds”. Next, VKGAGSVV: “no binding”.

As for VKETSVLF, the non-specific binding call was “binds”. Consider DKGEGDLA, for which the non-specific binding call was “no binding”. Next, DKGGSSLD: “no binding”; VKGRGAGY: “binds”; VKGRGAGS: “binds”. With VKGKGDVY, the non-specific binding call is “no binding”. Next, FKGEGAGV: “no binding”. Next, AKERGDGV: “no binding”; YKERASGV: “binds”; YKGKGSSY: “binds”. For the variant YKGKGSSS, the non-specific binding call was “binds”. For the variant SKGKGAVA, the non-specific binding call is given as “binds”. Next, FKGKGSWD: “binds”; FKGKGSAD: “binds”. As to AKGKASSD, the non-specific binding call is listed as “binds”. On to FKGGNVGV, for which the non-specific binding call is “binds”. To VKGKGAAF belongs “binds”; to VKEKGDVA, “no binding”; to YKGKGSVA, “binds”. YKGKGSVS: the non-specific binding call is “binds”. Next, YKGKGSVV: “binds”; VKGKGASA: “binds”; VKGKDVGY: “binds”. To DKGGAVWT belongs “no binding”. In the case of YKGKGSWA, the non-specific binding call is reported as “binds”. Next, YKGKGSWD: “binds”; FKGEGSLY: “no binding”. To FKGEGSLV belongs “no binding”; to YKGEGDLA, “no binding”; to YKGEGDLV, “no binding”. Take FKGEGDGV: the non-specific binding call is recorded as “no binding”. To AKGGAAVY belongs “no binding”; to VKGASDVV, “no binding”. To VKGASDVA belongs “no binding”.

In the case of DKGEGAAA, the non-specific binding call is listed as “no binding”. To YKGKGAGS belongs “binds”; to YKGKGAGF, “binds”. Next, YKGGSSLD: “binds”.

In the case of FKGKSSSD, the non-specific binding call was “binds”.

For the variant YKERGDVV, the non-specific binding call is recorded as “no binding”. Next, YKERGDVF: “binds”.

With FKGEGYGV, the non-specific binding call was “binds”.

For the variant VKGRAYGV, the non-specific binding call is “no binding”. Next, FKGRGAGS: “binds”. Next, YKGRDDVA: “no binding”. Next, VKGRADLY: “no binding”; VKGRADLV: “no binding”; VKGRGAAY: “binds”. With YKGGGYGA, the non-specific binding call was “binds”. Next, YKGEGFSS: “binds”.

With YKERDVGV, the non-specific binding call is on record as “binds”. To VKERGSVD belongs “binds”; to YKGRDALD, “binds”; to FKGKGFGA, “binds”. To YKGRDAGD belongs “binds”; to VKGRAAVA, “no binding”; to FKGKGAAF, “binds”. To FKGKGAAV belongs “binds”; to VKGESAGV, “no binding”. Take YKGKGFGD: the non-specific binding call is reported as “binds”. Next, YKGKGFGA: “binds”; YKGKGFGF: “binds”; YKGKGYVD: “binds”. With SKERGSLV, the non-specific binding call is listed as “no binding”. To YKGKGDAD belongs “binds”. Consider SKGKGSSA, for which the non-specific binding call was “binds”. Turning to SKGKGVGA, the non-specific binding call is “binds”. To SKERGDLV belongs “no binding”; to AKGKGAAV, “binds”. With YKGEDDVY, the non-specific binding call is listed as “no binding”.
